US20240141039A1 (AGENUS, published 2024)
Blank lines part the entries; values can stand above or below the binder they belong to.

Key:
[1] = molecular target: T1, full-length isoform 2 ECD of cynomolgus monkey CD96 (His-tagged) (cynomolgus monkey); test: SPR Biacore T200, Protein A capture, 1:1 model, experiment #2
T1 construct: also called His-tagged isoform 2 of cynomolgus monkey CD96; cyno CD96 extracellular domain isoform 2
T1 chain: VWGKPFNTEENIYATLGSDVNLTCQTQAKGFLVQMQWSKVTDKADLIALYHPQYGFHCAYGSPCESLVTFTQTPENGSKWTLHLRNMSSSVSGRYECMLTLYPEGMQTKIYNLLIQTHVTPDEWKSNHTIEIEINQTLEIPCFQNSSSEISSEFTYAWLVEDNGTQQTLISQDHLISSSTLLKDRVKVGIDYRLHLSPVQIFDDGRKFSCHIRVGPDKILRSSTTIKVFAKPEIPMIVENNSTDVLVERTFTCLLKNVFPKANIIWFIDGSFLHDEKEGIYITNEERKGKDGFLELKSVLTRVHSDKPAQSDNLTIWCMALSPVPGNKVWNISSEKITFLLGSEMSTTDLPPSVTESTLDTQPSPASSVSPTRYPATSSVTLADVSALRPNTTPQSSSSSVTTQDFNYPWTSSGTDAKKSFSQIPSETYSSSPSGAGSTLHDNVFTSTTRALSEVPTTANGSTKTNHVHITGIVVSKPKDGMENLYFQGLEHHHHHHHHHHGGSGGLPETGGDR
Protocol: (§1) Briefly, surface plasmon resonance experiments were performed using a Biacore T200 instrument, and the association rate (kₐ), dissociation rate (kd), and dissociation constant (KD) were calculated from each experiment using a 1:1 binding model with Biacore T200 Evaluation Software.
(§2) Multispecific molecules were captured using a 30-sec injection at a flow rate of 10 μl/min to reach about 350 resonance units (RUs). […] The sensor chip was regenerated between cycles with two 30-sec injections of 10 mM glycine, pH 1.5. Sensorgrams were evaluated and fit to a simple Langmuir 1:1 interaction model using the global data analysis option of BIAevaluation 3.0 software. Data quality was verified by visually inspecting deviations and curve fitting, and by evaluating the parameters of Rₘₐₓ, Chi2, and Tc.

[2] = molecular target: T2, wild type full-length cynomolgus monkey CD96 isoform 2 expressed on CHO cells (cynomolgus monkey, UniProt A0A2K5TWV6 22-569); test: flow cytometry, cynomolgus CD96 (isoform 2) CHO cells, 1 experiment
T2 construct: whole, on cells; also called cynomolgus CD96-CHO cells; cynomolgus CD96-CHO (isoform 2)
T2 sequence: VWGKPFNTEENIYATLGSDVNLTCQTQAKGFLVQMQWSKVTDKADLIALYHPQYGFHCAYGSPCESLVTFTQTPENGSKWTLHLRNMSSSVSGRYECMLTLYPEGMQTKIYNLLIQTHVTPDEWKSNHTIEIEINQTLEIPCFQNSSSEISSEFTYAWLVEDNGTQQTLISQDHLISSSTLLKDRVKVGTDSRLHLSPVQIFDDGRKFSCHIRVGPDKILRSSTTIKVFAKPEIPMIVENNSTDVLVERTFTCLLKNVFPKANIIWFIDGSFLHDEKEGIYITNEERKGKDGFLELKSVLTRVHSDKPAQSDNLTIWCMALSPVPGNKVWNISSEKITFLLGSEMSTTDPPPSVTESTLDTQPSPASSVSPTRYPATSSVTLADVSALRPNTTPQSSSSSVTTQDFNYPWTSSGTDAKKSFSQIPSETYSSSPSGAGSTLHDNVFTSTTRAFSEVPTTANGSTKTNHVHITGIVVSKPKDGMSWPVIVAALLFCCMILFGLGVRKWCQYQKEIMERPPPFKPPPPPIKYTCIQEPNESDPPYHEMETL

[3] = molecular target: T3, wild type full-length cynomolgus monkey TIGIT expressed on CHO cells (cynomolgus monkey, UniProt A0A7N9I9V4 89-312); test: flow cytometry, blocking of human CD155-Fc-PE binding to CHO cells expressing cynomolgus TIGIT
T3 construct: whole, on cells; also called cynomolgus TIGIT-CHO cells
T3 sequence (A0A7N9I9V4 entry or part of it): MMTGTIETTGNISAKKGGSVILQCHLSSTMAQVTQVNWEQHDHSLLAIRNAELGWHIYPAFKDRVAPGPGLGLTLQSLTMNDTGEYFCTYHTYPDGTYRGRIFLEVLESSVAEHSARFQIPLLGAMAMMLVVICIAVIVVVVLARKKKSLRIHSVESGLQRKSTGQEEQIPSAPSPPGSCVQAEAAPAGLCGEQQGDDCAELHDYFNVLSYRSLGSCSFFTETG

[4] = molecular target: T4, full-length ECD of human TIGIT (His-tagged) (human); test: SPR Biacore T200, geomean of experiments #1 and #2
T4 construct: also called His-tagged human TIGIT; human TIGIT extracellular domain
T4 chain: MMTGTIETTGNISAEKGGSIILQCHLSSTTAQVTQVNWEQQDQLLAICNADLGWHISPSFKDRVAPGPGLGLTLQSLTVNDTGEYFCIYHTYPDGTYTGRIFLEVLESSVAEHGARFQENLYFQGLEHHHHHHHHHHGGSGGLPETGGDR
Protocol: as §1
as §2, with “Antibodies” for “Multispecific molecules”, “500” for “350”

[5] = molecular target: T5, full-length ECD of cynomolgus monkey TIGIT (His-tagged) (cynomolgus monkey); test: SPR Biacore T200, geomean of experiments #1 and #2
T5 construct: also called His-tagged cynomolgus monkey TIGIT; cyno TIGIT extracellular domain
Protocol: as §1
as §2, with “Antibodies” for “Multispecific molecules”, “500” for “350”

[6] = molecular target: T4, full-length ECD of human TIGIT …; test: SPR Biacore T200, Protein A capture, 1:1 model, experiment #1
Protocol: as §1
as §2, with “Antibodies” for “Multispecific molecules”, “500” for “350”

[7] = molecular target: T5, full-length ECD of cynomolgus monkey …; test: as above
Protocol: as §1
as §2, with “Antibodies” for “Multispecific molecules”, “500” for “350”

[8] = molecular target: CD8+ T cells (CD3-stimulated; Day 4); test: flow cytometry on activated primary human T cells, gated CD8+, donor 2; PE anti-human IgG detection
Protocol: A total of 8 dilutions ranging from 50 μg/mL to 0.000005 μg/mL were prepared. After four days, the sample plates were centrifuged for two minutes at 2000 rpm, and supernatants were discarded. Samples were blocked with FcγR Block prepared in FACs buffer at 5 μL per 100 μL test for 10 minutes. Sample plates were then centrifuged for two minutes at 2000 rpm, and the supernatant was discarded. […] Sample plates were incubated for 30 minutes at 4° C. Cells were washed by addition of cold sample buffer and centrifuged for two minutes at 2000 rpm, and the supernatant was discarded. This wash was repeated once.
Cells were then resuspended in a cocktail of fluorescently labeled antibodies. A cocktail of fluorescently labeled antibodies sufficient for all samples was prepared in FACs buffer. 100 μL of antibody per well was then added to a round-bottom 96-well plate. The sample plate was incubated for 20 minutes on ice. Cells were washed by addition of cold sample buffer, centrifuged for two minutes at 2000 rpm, and supernatants discarded. […]
Antibody binding was measured by flow cytometry using a BD LSR Fortessa Flow Cytometer. […] 100,000 events were recorded for each sample. Samples were analyzed by sequentially gating on the following populations: FSC-A vs. SSC-A, FSC-H vs. FSC-A, SSC-A vs. LIVE/DEAD, CD4 vs. CD8, and SSC vs. CD25. Mean fluorescence intensity (MFI) was calculated.

Kd [1]: 42.7 nM
koff [1]: 0.00324 s⁻¹
kon [1]: 75900 M⁻¹ s⁻¹
EC50 [2]: 1.04 µg/mL
IC50 (read off the curve) [3]: ~2 µg/mL
B1: anti-TIGIT×CD96 multispecific molecule BA123 (bispecific antibody, human IgG1, kappa, lambda)
heavy 1: QVQLVQSGAEVKKPGASVKVSCKASGYTFTSYGISWVRQAPGQGLEWMGWISAYNANTNYAQKLQGRVTMTTDTSTSTAYMELRSLRSDDTAVYYCARSAGVLGGMDVWGRGTLVTVSSASTKGPSVFPLAPSSKSTSGGTAALGCLVKDYFPEPVTVSWNSGALTSGVHTFPAVLQSSGLYSLSSVVTVPSSSLGTQTYICNVNHKPSNTKVDKRVEPKSCDKTHTCPPCPAPELLGGPDVFLFPPKPKDTLMISRTPEVTCVVVDVSHEDPEVKFNWYVDGVEVHNAKTKPREEQYNSTYRVVSVLTVLHQDWLNGKEYKCKVSNKALPAPIEKTISKAKGQPREPQVYTLPPSREEMTKNQVSLSCAVKGFYPSDIAVEWESNGQPENNYKTTPPVLDSDGSFFLVSKLTVDKSRWQQGNVFSCSVMHEALHNHYTQKSLSLSPG
light 1: not shown
heavy 2: EVQLVQSGAEVKKPGSSVKVSCKASGYTFASYGISWVRQAPGQGLEWMGGITPFFNRVDVAEKFQGRVTITADKSTSTAYIELSSLRSEDTAVYYCARDLRRGGVGDAFDIWGRGTLVTVSSASTKGPSVFPLAPSSKSTSGGTAALGCLVKDYFPEPVTVSWNSGALTSGVHTFPAVLQSSGLYSLSSVVTVPSSSLGTQTYICNVNHKPSNTKVDKRVEPKSCDKTHTCPPCPAPELLGGPDVFLFPPKPKDTLMISRTPEVTCVVVDVSHEDPEVKFNWYVDGVEVHNAKTKPREEQYNSTYRVVSVLTVLHQDWLNGKEYKCKVSNKALPLPEEKTISKAKGQPREPQVYTLPPSREEMTKNQVSLWCLVKGFYPSDIAVEWESNGQPENNYKTTPPVLDSDGSFFLYSKLTVDKSRWQQGNVFSCSVMHEALHNHYTQKSLSLSPG
light 2: QSALTQPRSVSGSPGQSVTISCTGTSPDVGSHAYRSWYQQHPGKAPKLMIYEVSYRPSGVSNRFSGSKSGNTASLTISGLQAEDEADYYCSSYPPSSATVFGAGTKLTVLGQPKAAPSVTLFPPSSEELQANKATLVCLISDFYPGAVTVAWKADSSPVKAGVETTTPSKQSNNKYAASSYLSLTPEQWKSHRSYSCQVTHEGSTVEKTVAPTEC
notes: copies: 1 + 1 + 1 + 1

Kd [4]: 0.54 nM
Kd [5]: 3.9 nM
Kd [6]: 0.535 nM
koff [6]: 0.000413 s⁻¹
kon [6]: 773000 M⁻¹ s⁻¹
Kd [7]: 3.8 nM
koff [7]: 0.00127 s⁻¹
kon [7]: 334000 M⁻¹ s⁻¹
B2: anti-TIGIT monospecific antibody BA148 (antibody, human IgG1, lambda)
heavy: EVQLVQSGAEVKKPGSSVKVSCKASGYTFASYGISWVRQAPGQGLEWMGGITPFFNRVDVAEKFQGRVTITADKSTSTAYIELSSLRSEDTAVYYCARDLRRGGVGDAFDIWGRGTLVTVSSASTKGPSVFPLAPSSKSTSGGTAALGCLVKDYFPEPVTVSWNSGALTSGVHTFPAVLQSSGLYSLSSVVTVPSSSLGTQTYICNVNHKPSNTKVDKRVEPKSCDKTHTCPPCPAPELLGGPDVFLFPPKPKDTLMISRTPEVTCVVVDVSHEDPEVKFNWYVDGVEVHNAKTKPREEQYNSTYRVVSVLTVLHQDWLNGKEYKCKVSNKALPLPEEKTISKAKGQPREPQVYTLPPSREEMTKNQVSLTCLVKGFYPSDIAVEWESNGQPENNYKTTPPVLDSDGSFFLYSKLTVDKSRWQQGNVFSCSVMHEALHNHYTQKSLSLSPGK
light: B1 light 2
notes: IgG1; also called anti-TIGIT IgG1 antibody BA148

EC50 (read off the curve) [8]: ~0.06 µg/mL
B3: anti-TIGIT×CD96 multispecific molecule BA127 (bispecific antibody, human IgG1, kappa, lambda)
heavy 1: QVQLVQSGAEVKKPGASVKVSCKASGYTFTTYALHWVRQAPGQRLEWMGWINTGSGDTKYSQKFQGRVTITRDTSASTAYMELSSLRSEDTAVYYCARSLGVYYGMDVWGQGTLVTVSSASTKGPSVFPLAPSSKSTSGGTAALGCLVKDYFPEPVTVSWNSGALTSGVHTFPAVLQSSGLYSLSSVVTVPSSSLGTQTYICNVNHKPSNTKVDKRVEPKSCDKTHTCPPCPAPELLGGPDVFLFPPKPKDTLMISRTPEVTCVVVDVSHEDPEVKFNWYVDGVEVHNAKTKPREEQYNSTYRVVSVLTVLHQDWLNGKEYKCKVSNKALPAPIEKTISKAKGQPREPQVYTLPPSREEMTKNQVSLSCAVKGFYPSDIAVEWESNGQPENNYKTTPPVLDSDGSFFLVSKLTVDKSRWQQGNVFSCSVMHEALHNHYTQKSLSLSPG
light 1: not shown
heavy 2: B1 heavy 2
light 2: B1 light 2
notes: Anti-CD96 arm = BA139, anti-TIGIT arm = BA150; copies: 1 + 1 + 1 + 1
